Experimental data reported in the supplement of paper PMC9170038.

Experiments:
Conditions in all cases: FMN input: 0 or 200 uM; Eterna round: R93 (includes R88 designs)
MS2 coat protein [1] = experiment: apparent KD of MS2 coat protein, switch OFF state (with FMN for OFF switches, without FMN for ON switches); designed switch direction (-1 OFF switch, 1 ON switch): 1; higher = weaker reporter binding
In short: (§1)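 Each design's apparent KD comes from the median of binding-curve fits to its normalised clusters. Those clusters carried RNA switches transcribed on-chip from Illumina sequencing clusters. SNAP-549-labelled MS2 coat protein was titrated onto them in twofold steps (0.7 or 1.5 nM to 3 µM; per step 0.8–1.5 h down to 10–20 min). Conditions were 100 mM Tris-HCl pH 7.5, 80 mM KCl, 4 mM MgCl2, without or with constant ligand.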

MS2 coat protein [2] = experiment: apparent KD of MS2 coat protein, switch ON state; designed switch direction (-1 OFF switch, 1 ON switch): 1; higher = weaker reporter binding
In short: as §1

MS2 coat protein [3] = experiment: apparent KD of MS2 coat protein, switch ON state; designed switch direction (-1 OFF switch, 1 ON switch): -1; higher = weaker reporter binding
In short: as §1

MS2 coat protein [4] = experiment: apparent KD of MS2 coat protein, switch OFF state (with FMN for OFF switches, without FMN for ON switches); designed switch direction (-1 OFF switch, 1 ON switch): -1; higher = weaker reporter binding
In short: as §1

| Sequence | apparent KD of MS2 coat protein (MS2 coat protein [1]) | apparent KD of MS2 coat protein (MS2 coat protein [2]) | apparent KD of MS2 coat protein (MS2 coat protein [3]) | apparent KD of MS2 coat protein (MS2 coat protein [4]) |
| --- | --- | --- | --- | --- |
| AAGAACGUGGUGUAGGAUAUACUAAUAGUCACAUGAGGAUCACCCAUGUUCAUAUAUAUGAACGAGUAGAAGGACGACGAAAAAA [Mat - Same state - Malcolm Mod - D107] | 147 nM | 137 nM |  |  |
| AUAAAACAUGAGGAUCACCCAUGUAAAAAUAUGGAAGGAUAUACGUAGUAAAAUAAAUACGUAGAAGGUCCAAAAA [SS! MT 21] | 19.7 nM | 15 nM |  |  |
| AAAAAACAUGAGGAUCACCCAUGUAGAAAUAUGGGAGGAUAUACAAAGACGAAAGUCAAAGUAGAAGGCCUAAAAA [77%, Mat - Mod of Eli, 2] | 57.8 nM | 18.2 nM |  |  |
| CAGAGGAAGAGAGAGGAUAUCCAAAGGAAAACAUGAGGAUCACCCAUGUAAAAGGUAGGAAAUUGGGAGAAGGCUCAAGAGAGAG [salish99-ss2-064] | 34.6 nM | 27.4 nM |  |  |
| CAUCAUGCGCCUAAGGAUAUGUCUCACAAGACAUGAGGAUCACCCAUGUAGAAUAAAUAAAUGAUGCAGAAGGUGGAGCACAUGC [Leedanla] | 586 nM | 372 nM |  |  |
| AUUAAAUAUAGUUAGGAUAUAAUAUGUAAGACAUGAGGAUCACCCAUGUCCUAAGAAUAGUUAAAUUAGAAGGAACAGUGAAUAU [JR_SS002_Sub420] | 24.5 nM | 24.1 nM |  |  |
| GUAGAACAUGAGGAUCACCCAUGUGAAGACGCAUGAGGAUAUAUACGUAAAUAGCAUACGAUAGAAGGCAUGAUAA [JR_SS001_Sub1703] | 53.5 nM | 25.5 nM |  |  |
| GAAAAACAUGAGGAUCACCCAUGUAAGAUAAACACAGGAUAUGCGAAAAUAAACAAAUAAGCAGAAGGGUGAAAAG [Mat - Same State 1 - Tesla mod - 77] | 47.4 nM | 18.5 nM |  |  |
| AUAUAUAUAAGGUAGGAUAUCCAAAAAUAAACAUGAGGAUCACCCAUGUCCAUAAAGAAUAAAUGGGAGAAGGACCAUAUAUAUA [viburnum 9] | 48.6 nM | 28.5 nM |  |  |
| GGGAGACAUGAGGAUCACCCAUGUGAGAAGAGGCGAGGAUAUCGAAAGAAAGAAGAGAAACGAGAAGGCGCGAGCU [salish99-SS1-056] | 62 nM | 28.1 nM |  |  |
| AAAUAUAAAGACUAGGAUAUACUAAAAUAAACAUGAGGAUCACCCAUGUAAAAAAUAAAACUCAUGUAGAAGGAGUAAAUAUAAA [ss2 10th] | 15.5 nM | 13.5 nM |  |  |
| AAAGAAAAACUAGAGGAUAUUUGAAUGGUAACAUGAGGAUCACCCAUGUGAAGAAAGGAACAUGAGGAGAAGGCUAGAAGAAAAA [JL Nando mod 16] | 74.7 nM | 17.5 nM |  |  |
| AACAAUCUAUCUGAGGAUAUCAUGUCAAAGACAUGAGGAUCACCCAUGUUGCAGGAAACUGCUCAUGAGAAGGCAGAUAGAUUGA [SS2: 1129] | 828 nM | 41 nM |  |  |
| CAGGACCUAGGAUAGGAUAUAUGAAUAAUUACAUGAGGAUCACCCAUGUCCAUUUAUAUGGGAACAUAGAAGGGUUGUGGUUAUG [Mat - Same state - Malcolm Mod - D133] | 118 nM | 179 nM |  |  |
| GCUCCAGCUAGCAAGGAUAUGUAGGAUGCUACAUGAGGAUCACCCAUGUGCUGAAAUAAGUCCCGGCAGAAGGUGUGACUGGAGA [Laedtear] | 26.9 nM | 16.8 nM |  |  |
| AAAACACAUGAGGAUCACCCAUGUAAAAACAUGAGAGGAUAUGCAUGGAAAAAAAACUAUGCAGAAGGCUCAUGUG [SS1 - 4] | 32.2 nM | 21.2 nM |  |  |
| AUAAAAGAAGCGAAGGAUAUCCAAAACCUAACAUGAGGAUCACCCAUGUAAAGAAAGAAAAAAUGGGAGAAGGUCGCAAAGAAUA [73%, More Fisker Same State 2, D3, 9] | 22.7 nM | 11.9 nM |  |  |
| AACAGUACAGGAUAUACAUGAGGAUCACCCAUGUGAGAAUUAAGCAGCGUAACACACAGUAGAAGGGUAAUGGA [Ruby 20] |  |  | 46.4 nM | 40.7 nM |
| AAAAAGUGAGGAUAUCGGAAAAAAAAAAAAAAAAAAAAAAACGAGAAGGCACAUGAGGAUCACCCAUGUAAAAA [all GC all the time + G boost - take 2] |  |  | 42.2 nM | 45.6 nM |
| AGUCUGAGAGGAUAUACAUGAAAAAAAAAAGUAAGAUCCCUACAUGAGGAUCACCCAUGUAGAAGGCUCUGACA [Ex2 Design 145: Sub-opt 9] |  |  | 31.4 nM | 29.4 nM |
| CUUAUGUCAGGAUAUCAGUAGUAAAAAAAUAAAAUUACUACUGAGAAGGGACAUGAGGAUCACCCAUGUCCGGG [EX4 369: Super Stable 69] |  |  | 78.4 nM | 34 nM |
